Measurements reported in patent US20190184015A1, “IRRADIATION TREATMENT OF NEUROLOGICAL SENSATIONS BY PHOTOABLATION” (European Molecular Biology Laboratory, priority 2016, published 2019).
Numbering of substitutions follows the chain as printed. Names and notes keep the numbering of the source.

Legend:
IL31 Receptor A (IL31RA) = biological target: T1, IL31 Receptor A (IL31RA) (Mus musculus, UniProt Q8K5B1); test: In vivo skin labelling after intradermal injection; conditions: wildtype mice; intradermal injection into back skin
T1 construct: from tissue; host or cells: mouse back skin (nape of the neck), in vivo
T1 sequence (Q8K5B1 19-716): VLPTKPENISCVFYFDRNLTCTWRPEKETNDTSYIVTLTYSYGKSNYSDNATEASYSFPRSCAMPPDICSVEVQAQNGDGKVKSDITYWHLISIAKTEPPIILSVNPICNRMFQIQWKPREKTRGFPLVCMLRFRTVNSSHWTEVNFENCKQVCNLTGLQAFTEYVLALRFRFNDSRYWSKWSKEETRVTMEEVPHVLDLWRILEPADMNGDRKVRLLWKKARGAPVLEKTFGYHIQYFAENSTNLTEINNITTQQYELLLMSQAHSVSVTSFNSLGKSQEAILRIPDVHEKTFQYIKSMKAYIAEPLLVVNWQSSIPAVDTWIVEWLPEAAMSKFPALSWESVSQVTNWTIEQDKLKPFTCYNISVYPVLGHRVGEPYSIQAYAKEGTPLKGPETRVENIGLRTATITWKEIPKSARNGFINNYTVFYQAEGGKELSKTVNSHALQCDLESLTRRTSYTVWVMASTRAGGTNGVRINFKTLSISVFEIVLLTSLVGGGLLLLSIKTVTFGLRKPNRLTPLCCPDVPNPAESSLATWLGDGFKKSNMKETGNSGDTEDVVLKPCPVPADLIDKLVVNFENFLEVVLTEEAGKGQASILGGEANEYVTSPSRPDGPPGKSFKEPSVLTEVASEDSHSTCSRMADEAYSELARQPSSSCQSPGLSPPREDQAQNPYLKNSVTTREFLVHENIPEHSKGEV
T1 sequence (O70458 24-971 partner): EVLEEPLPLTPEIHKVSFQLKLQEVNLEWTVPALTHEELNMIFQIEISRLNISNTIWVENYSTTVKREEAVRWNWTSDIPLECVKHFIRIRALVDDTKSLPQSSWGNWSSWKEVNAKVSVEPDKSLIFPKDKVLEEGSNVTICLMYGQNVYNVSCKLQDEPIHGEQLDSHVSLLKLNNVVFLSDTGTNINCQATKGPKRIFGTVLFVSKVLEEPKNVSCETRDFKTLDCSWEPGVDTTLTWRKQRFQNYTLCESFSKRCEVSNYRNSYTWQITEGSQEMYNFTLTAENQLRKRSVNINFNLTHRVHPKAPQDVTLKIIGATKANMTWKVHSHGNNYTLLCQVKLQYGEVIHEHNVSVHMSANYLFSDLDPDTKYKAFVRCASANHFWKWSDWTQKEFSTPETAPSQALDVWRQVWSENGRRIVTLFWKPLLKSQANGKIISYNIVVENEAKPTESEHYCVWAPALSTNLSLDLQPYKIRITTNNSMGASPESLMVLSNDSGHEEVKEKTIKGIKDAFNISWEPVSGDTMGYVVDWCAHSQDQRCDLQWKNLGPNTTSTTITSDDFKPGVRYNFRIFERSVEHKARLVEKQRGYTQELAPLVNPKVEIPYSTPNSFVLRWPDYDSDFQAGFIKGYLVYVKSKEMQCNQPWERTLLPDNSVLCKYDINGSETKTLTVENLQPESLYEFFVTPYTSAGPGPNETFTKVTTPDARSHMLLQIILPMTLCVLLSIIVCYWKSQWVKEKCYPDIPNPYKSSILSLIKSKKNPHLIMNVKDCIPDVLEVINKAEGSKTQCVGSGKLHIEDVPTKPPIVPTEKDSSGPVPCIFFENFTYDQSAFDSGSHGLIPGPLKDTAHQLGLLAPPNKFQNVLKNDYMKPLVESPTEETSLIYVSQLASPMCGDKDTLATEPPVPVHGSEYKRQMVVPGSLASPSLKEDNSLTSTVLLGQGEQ
Description: The inventors produced recombinant IL31 with a C-terminal fusion of SNAP (IL31^SNAP) in E. Coli. […] To determine whether IL31^SNAP was functional the inventors first performed binding studies in primary keratinocyte cultures. IL31^SNAP was labelled in vitro with BG-Surface549 and applied to keratinocytes from wildtype or IL31 Receptor A (IL31RA) knockout mice (IL31RA^−/−). […] The inventors further examined IL31^SNAP labelling in vivo by injecting IL31^SNAP-Surface549 intradermally into the back skin of wild type and IL31RA^−/− mice. […] Finally, the inventors determined whether IL31^SNAP was active by quantifying scratching behavior in mice upon intradermal injection. […] Thus the IL31^SNAP retains the functional properties of native IL31.
For skin labelling, intradermal injection of 5 μM IL31^SNAP coupled with 5 μM BG549surf was performed in the nape of the neck. After […] (30 min) skin was collected, fix in PFA 4% overnight, OCT-embedded and cryo-sectioned (25 μm).

[1] = tested on: IL31 evoked scratching behavior; test: Scratching during three days of IL31^SNAP-IR700 injection and illumination; conditions: injected three consecutive days and skin illuminated
[2] = tested on: IL31 receptor expressing cells; test: In-vivo photo-ablation of skin, TUNEL assay; design: species or system mouse; conditions: IL31RA^−/− mice; injection and near infrared light
primary keratinocytes = test: In-vitro photo-ablation of primary keratinocytes (propidium iodide staining); type: cell-based, mouse; conditions: near infra-red light, 24 hours after
Method: 1 μM IL31^SNAP and 3 μM BG-IR700 were coupled for 1 hour at 37° C. The coupling reaction was applied for 10 minutes at 37° C. on primary wild type and IL31RA^−/− keratinocytes. Cells were then exposed to near infra-red light (680 nm) at 40 J/cm^2 for 2 minutes. 24 hours after light exposure cell death was assessed by Propidium iodide (PI) staining (Invitrogen #P3566) and cells were imaged with an epifluorescent microscope.

IL31RA expressing cells = test: Cell type specificity of photo-ablation in skin; type: in vivo
[3] = tested on: acute itch evoked by IL31, histamine, chloroquine or LY344864; test: Pruritogen evoked scratching after photoablation; type: in vivo, mouse
Method: To characterize IL31^K138A-SNAP mediated photoablation in vivo, the inventors first tested its efficacy at alleviating IL31 provoked itch. Mice were treated for three consecutively days with IL31^K138A-SNAP-IR700 and the skin was illuminated with near-IR light. Strikingly, IL31-induced scratching behavior was abolished in these animals (FIG. 2f), and this persisted throughout an 8 week observation period (Supplementary FIG. 2l). […] The inventors next tested the effects of photoablation on scratching provoked by other acutely applied pruritogens. […] Finally, to assess the specificity of photoablation to itch sensation, the inventors examined other sensory modalities after treatment.

[4] = tested on: Calcipotriol model of atopic dermatitis; test: Calcipotriol model of atopic dermatitis
mechanical sensitivity = test: Von Frey test after photoablation in the hind paw; type: in vivo, mouse
Method: Mice were habituated on an elevated platform with a mesh floor for 30 minutes. The plantar side of the hind paw was stimulated with calibrated von-Frey filaments (North coast medical #NC12775-99) to assess baseline levels of mechanical sensitivity. The stimulation was then repeated at the 3rd day after the last photoablation performed on the same paw considered for the baseline. As a control group, the animals were injected but not illuminated. The 50% paw withdrawal thresholds were calculated using the Up-Down method (26).

thermal sensitivity = test: Hot plate test after photoablation in the hind paw; type: in vivo, mouse
Method: Mice were injected for three consecutive days with […] coupled with BG-IR700 with or without near IR light illumination. 3 days after the last injection, mice were placed on top of a hot plate (Ugo Basile #35150) that was preset to 52° C. and the latency to response as distinguished by flicking or licking of the hind paw was observed. In order to avoid injury to the mice, a cutoff of 30 seconds was set.

[5] = after photoablation with near-IR light
[6] = prevention: injection and near IR illumination 3 days prior to Calcipotriol
[7] = rescue: subcutaneous injection and near IR light after 7 days Calcipotriol
[8] = topical application in water-in-oil micro-emulsion, near IR light

B1: IL31^SNAP-Surface549: IL31^SNAP labelled in vitro with BG-Surface549 (conjugate)
chain: TCSLSFGAPISKEDLRTTIDLLKQESQDLYNNYSIKQASGMSADESIQLPCFSLDREALTNISVIIAHLEKVKVLSENTVDTSWVIRWLTNISCFNPLNLNISVPGNTDESYDCKVFVLTVLKQFSNCMAELQAKDNTTC
modifications: left off: small tags and cut ends
fluorescent signal in cells in skin sections (IL31 Receptor A (IL31RA)): fluorescent signal was observed

B2: IL31^SNAP-IR700: IL31^SNAP conjugated in vitro to benzylguanine modified IRDye®700DX phthalocyanine (conjugate)
chain: B1 chain
modifications: left off: small tags and cut ends
notes: IL31^SNAP conjugated in vitro to benzylguanine modified IRDye®700DX phthalocyanine
scratching bouts [1]: progressive decrease in scratching bouts | TUNEL positive apoptotic cells in skin [2]: largely absent | cell death after illumination (primary keratinocytes; IL31RA^−/− keratinocytes): not evident | cell death after illumination (primary keratinocytes; wild type keratinocytes): substantial cell death

B3: IL31^K138A-SNAP-IR700 (conjugate)
chain: B1 chain with K115A
modifications: left off: small tags and cut ends
effect of photo-ablation on other cell types (IL31RA expressing cells): does not affect other cell types such as keratinocytes or epidermal Langerhans cells | LY344864 evoked itch [3, 5]: no significant effect | chloroquine evoked itch [3, 5]: no significant effect | histamine evoked itch [3, 5]: no significant effect | IL31-evoked scratching ([3]; injected but not illuminated (control)): no reduction in IL31-evoked scratching | IL31-induced scratching behavior ([3]; three consecutive days treatment with near-IR light): abolished | persistence of abolished IL31-induced scratching ([3]; with near-IR light, observation period): ≥ 8 week | development of dermatitis-like symptoms ([4]; prevention: identical experiments in the absence of near IR illumination): normal development of dermatitis-like symptoms | development of atopic dermatitis-like indicators [4, 6]: completely abolished the development of all indicators | scratching behavior [4, 6]: remained at baseline levels | skin appearance [4, 6]: skin appeared healthy and typical features of dermatitis such as redness and scaling were entirely absent | disease indicators of established dermatitis ([4]; rescue: after 7 days Calcipotriol, subcutaneous injection and near IR light three days, over the course of 1 week): rescue of all disease indicators | scratching behavior [4, 7]: returned to baseline levels | skin thickness, morphology and structure [4, 7]: became indistinguishable from healthy mice | reversal of dermatitis-like symptoms ([4]; rescue: without subsequent near IR illumination (control)): not evident | scratching behavior [4, 8]: return to baseline levels of scratching behavior | skin structure and histology [4, 8]: normalization of skin structure and histology | Calcipotriol provoked dermatitis-like symptoms ([4]; topical application in water-in-oil micro-emulsion, near IR light 20 minutes later): both prevented and reversed Calcipotriol provoked dermatitis-like symptoms | mechanical sensitivity (von Frey filaments) (mechanical sensitivity): no difference in response properties | thermal sensitivity (hot plate test) (thermal sensitivity): no difference in response properties
